# Experimental data as given in PMC9338584 (2022).
# Biological target: recombinant lamprey tumor necrosis factor receptor (rL-TNFR) (lamprey)
# Test: SPR
binder,measurement,value
recombinant Lr-PGRN-S1 (Lethenteron reissneri short-form progranulin S1) (natural protein) MGAVFSLGLSKEAIAMALPRPLMFVLVAAGLCALVSADRCPDGRFCVSRCCWKFTQYTCCWAGEGEGQGETQGELATVPAQAISATVSKVSSCAGSVCSANGESRCCPLSEGSCCGDGLSCCGKGSTCTTFRGLNLCLPHAEFQDPVATFLSREQQQHQQGGCVDDSGCPAGSECHVASGDHRGQCVSSDALIPWVEKEAALSGAVGAQVVYCGSGQYCRDGQTCCRLATGSWGCCNIPHAICCSDGIHCCPTGHFCLTASGLCARSTLSLPAVEGV,Kd,337 nM
